Assay results reported in publication PMC11162321.

What was measured:
[1] = biological target: F-actin (rabbit skeletal muscle α-actin, filamentous) (rabbit (Oryctolagus cuniculus)) (UniProt P68135); assay: single-molecule TIRF microscopy
[2] = biological target: F-actin (rabbit skeletal muscle α-actin, filamentous) (rabbit (Oryctolagus cuniculus)) (UniProt P68135); assay: fluorescence polarisation
[3] = biological target: F-actin (rabbit skeletal muscle α-actin, filamentous) (rabbit (Oryctolagus cuniculus)) (UniProt P68135); assay: cryo-EM structure
[4] = biological target: F-actin (rabbit skeletal muscle α-actin, filamentous) (rabbit (Oryctolagus cuniculus)) (UniProt P68135); assay: other fluorescence titration

SipAC (SipA residues 425-685), unlabelled, sequence (P0CL52 425-685): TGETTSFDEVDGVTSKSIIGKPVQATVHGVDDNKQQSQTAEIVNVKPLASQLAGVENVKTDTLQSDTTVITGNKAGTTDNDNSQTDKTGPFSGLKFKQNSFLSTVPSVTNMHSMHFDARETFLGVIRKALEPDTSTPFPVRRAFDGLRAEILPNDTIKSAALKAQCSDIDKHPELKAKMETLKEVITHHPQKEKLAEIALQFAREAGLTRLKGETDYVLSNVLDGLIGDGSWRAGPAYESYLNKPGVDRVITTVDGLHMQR
FM-SipAC (SipA residues 425-685 labelled with fluorescein maleimide), sequence (P0CL52 425-685): as above
Alexa-647-SipAC (SipA residues 425-685 labelled with Alexa Fluor 647 maleimide), sequence (P0CL52 425-685): as above

Substance | Kd [1] [nM] | koff [1] [s⁻¹] | Kd [2] [nM] | koff [2] [s⁻¹] | stoichiometry N (SipAC per actin) [3] | Kd [4] [nM]
Alexa-647-SipAC (SipA residues 425-685 labelled with Alexa Fluor 647 maleimide) (from UniProt P0CL52 425-685) (domain or fragment) | 0.1 | 0.00038 |  |  |  | 
FM-SipAC (SipA residues 425-685 labelled with fluorescein maleimide) (from UniProt P0CL52 425-685) (domain or fragment) |  |  | 0.9 | 0.00304 |  | 
SipAC (SipA residues 425-685), unlabelled (from UniProt P0CL52 425-685) (domain or fragment) |  |  | 5 |  | 0.5 | 0.18
